The source of these data is PMC3991606, “Targeting NAD^+ Metabolism in the Human Malaria Parasite Plasmodium falciparum” (PLoS ONE, 2014).

The target of one data set is T1, PfNMNAT (Plasmodium falciparum, UniProt Q8IE38).
T1 construct: gene PF3D7_1327600
T1 sequence (Q8IE38 1-204): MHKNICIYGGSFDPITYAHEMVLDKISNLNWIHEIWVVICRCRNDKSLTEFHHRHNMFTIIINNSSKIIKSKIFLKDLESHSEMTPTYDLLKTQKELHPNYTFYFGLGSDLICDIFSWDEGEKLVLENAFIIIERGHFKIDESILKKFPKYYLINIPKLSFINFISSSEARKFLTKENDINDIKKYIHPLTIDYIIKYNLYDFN
In words: pyrophosphate release assay, […] nm, […] min preincubation with inhibitor. It counts as biochemical. The following applies: 50 µM 1a-a versus 2% DMSO control.

Substrate in data set [1]: Nc1ncnc2c1ncn2[C@@H]1O[C@H](COP(=O)(O)OP(=O)(O)OP(=O)(O)O)[C@@H](O)[C@H]1O
Put plainly: purified protein. It counts as biochemical, Plasmodium falciparum. The settings on record: 500 µM NaMN, 100 mM HEPES, 10 mM MgCl2, pH 7.5, apparent Km.

Substrate in data set [2]: O=C([O-])c1ccc[n+]([C@@H]2O[C@H](COP(=O)(O)O)[C@@H](O)[C@H]2O)c1
In words: purified protein. The format is biochemical, Plasmodium falciparum. The following applies: 500 µM ATP, 100 mM HEPES, 10 mM MgCl2, pH 7.5, apparent Km.

As for `O=C(CCC(=O)Nc1ccc(Br)cc1)N/N=C/c1c2ccccc2cc2ccccc12` [1a-a], the “inhibition at 50 μM” value against PfNMNAT is listed as 1a-a exhibits specific activity against purified his-PfNMNAT (Figure 4A).

B1: PfNMNAT (Plasmodium falciparum 3D7) (protein)
chain: T1 sequence (Q8IE38 1-204)
On to B1, for which the Km turned out to be 19.9 ± 6.7 µM in the data set “purified protein [1]” and 35.8 ± 5.1 µM in “purified protein [2]”.
